Assay results from patent US20070293656A1, “COLLAGEN BINDING PEPTIDES” (Epix Pharmaceuticals, Inc., priority 2005, published 2007).
“And” between values parts separate entries of the source, which are not always exact repeats. Equal values may be shown once. Read-outs that look alike come from different tables or passages of the source. Bridge positions count the residues as written; N and C are the ends. Square brackets hold non-standard residues; d marks the D form. Primed or numbered codes have the meaning given here. Side chains are listed from the residue outwards. Ends that are not written are not given here. * marks the point of attachment. Bip = N[C@@H](Cc1ccc(-c2ccccc2)cc1)C(=O)O; Gd^T = not defined here; Gd^T″ = GdDTPA-thiourea; Cbz = O=C(OCc1ccccc1)*; Dap = NC[C@H](N)C(=O)O

Legend:
[1] = tested on: perfused Langendorff rat heart; experiment: Washout kinetics from perfused Langendorff rat heart; details: 10 minutes perfusion with buffer after infusion
rat type I collagen = target: T1, rat type I collagen (Rattus norvegicus, UniProt P02454+P02466); experiment: MR phantom imaging of collagen gel samples at 4.7 T; details: centrifuged samples 4 and 8, 4.7 T
T1 construct: Rat collagen (acid soluble, type I, rat tail); purchased Upstate USA, Inc 08-115; host or cells: rat tail
Experimental: Samples: • 1. […] Sample prepared as sample 2, but centrifuged to separate insoluble rat collagen gel • 5. Sample prepared as sample 3, but centrifuged to separate insoluble human collagen gel • 6. 27 μM GdDTPA solution in PBS, pH 7.4 • 7. 27 μM GdDTPA in a solution of 5.0 μM rat type I collagen in 10 mM phosphate buffer, pH 5 incubated at 37° C. overnight to form a gel • 8. Sample prepared as in sample 7, but centrifuged to separate insoluble rat collagen gel • 9. Homogeneous gel of 5 μM rat collagen • 10. Homogeneous gel of 7.5 μM human collagen
Samples for imaging were placed in glass tubes that were in turn placed in tubes containing water. Images were acquired at 4.7 T on a Bruker Biospec Imager using a Multi-Slice Multi-Echo Method with variable Relaxation Delay (MSMEVTR) experiment. The spin echo time and the relaxation delay were set to TE=11.2 ms and TR=500 ms, respectively with a flip angle of 30°. Images were acquired of sample 2, sample 4, sample 7, and sample 8. […] Sample 7 and 8 show uniform signal intensity.

[2] = tested on: perfused Langendorff rat heart; experiment: Equilibrium binding to perfused Langendorff rat heart; details: Buffer 3.0 μM
Experimental: After deep anesthesia with pentobarbital (80 mg/kg ip), the chest cavity of a male Sprague Dawley rat (300 g) was opened, retracted and the heart was removed immediately and placed in an ice-cold normal Krebs-Henseleit (K-H) solution (NaCl, 118 mM; KCl, 4.7 mM; CaCl2, 2.5 mM; MgSO4, 1.2 mM; KH2PO4, 1.2 mM; NaHCO3, 25 mM; glucose, 5.5 mM). A K-H buffer filled 20 Gauge needle was inserted into the apex of the heart penetrating into the bottom of the chamber. This was attached to a pressure transducer used to record and monitor heart function. Perfusion pressure (˜60 mmHg) was monitored using a second transducer. The heart was perfused at a constant flow rate of 10-12 mL/min with 37° C. […]
Two peptide test articles, a high collagen binding peptide (SEQ ID NO: 144) and a low collagen binding peptide (SEQ ID NO: 173), are compared to GdDTPA. […] The amount of radioactivity added to the buffer solution was 1-5 μCi.
The heart was perfused for a period of 10 minutes and the perfusion solution was recycled through the heart. […] The heart was then weighed and the radioactivity in the heart measured with a Packard Cobra 5003 Gamma Scintillation counter. An aliquot of the K-H buffer was also weighed and counted. […]
The dual peptide gadolinium tetramer (Compound ID 803) was compared to GdDTPA. […] The amount of radioactivity added to the buffer solution was 1-5 μCi.

[3] = target: T2, human collagen type I (acid soluble, extracted from placenta, Sigma C7774) (human, UniProt P02452 162-1218; P08123 80-1119); experiment: dried collagen assay
T2 construct: gelled and dried as a fibril film in the assay; also called dried human collagen; h-Collagen
Experimental: (§1) An additional 90 μL is reserved in a HPLC glass vial as a measure of the total concentration.

[4] = target: T3, rat collagen (acid soluble, type I, rat tail, Upstate 08-115) (rat, UniProt P02454 152-1207; P02466 86-1125); experiment: dried collagen assay
T3 construct: also called dried rat collagen; insoluble rat collagen
Experimental: as §1

[5] = target: T2, human collagen type I (acid soluble, …); experiment: dried collagen assay; remark: listed apart in the source
[6] = target: T3, rat collagen (acid soluble, type I, rat …); experiment: dried collagen assay; remark: listed apart in the source
[7] = target: T2, human collagen type I (acid soluble, …); experiment: dried collagen assay; remark: listed apart in the source
[8] = target: T3, rat collagen (acid soluble, type I, rat …); experiment: dried collagen assay; remark: listed apart in the source
[9] = target: T2, human collagen type I (acid soluble, …); experiment: dried collagen assay; remark: listed apart in the source
[10] = target: T3, rat collagen (acid soluble, type I, rat …); experiment: dried collagen assay; remark: listed apart in the source

T3 sequence (P02454 152-1207 limits assumed, chain 1 of 2): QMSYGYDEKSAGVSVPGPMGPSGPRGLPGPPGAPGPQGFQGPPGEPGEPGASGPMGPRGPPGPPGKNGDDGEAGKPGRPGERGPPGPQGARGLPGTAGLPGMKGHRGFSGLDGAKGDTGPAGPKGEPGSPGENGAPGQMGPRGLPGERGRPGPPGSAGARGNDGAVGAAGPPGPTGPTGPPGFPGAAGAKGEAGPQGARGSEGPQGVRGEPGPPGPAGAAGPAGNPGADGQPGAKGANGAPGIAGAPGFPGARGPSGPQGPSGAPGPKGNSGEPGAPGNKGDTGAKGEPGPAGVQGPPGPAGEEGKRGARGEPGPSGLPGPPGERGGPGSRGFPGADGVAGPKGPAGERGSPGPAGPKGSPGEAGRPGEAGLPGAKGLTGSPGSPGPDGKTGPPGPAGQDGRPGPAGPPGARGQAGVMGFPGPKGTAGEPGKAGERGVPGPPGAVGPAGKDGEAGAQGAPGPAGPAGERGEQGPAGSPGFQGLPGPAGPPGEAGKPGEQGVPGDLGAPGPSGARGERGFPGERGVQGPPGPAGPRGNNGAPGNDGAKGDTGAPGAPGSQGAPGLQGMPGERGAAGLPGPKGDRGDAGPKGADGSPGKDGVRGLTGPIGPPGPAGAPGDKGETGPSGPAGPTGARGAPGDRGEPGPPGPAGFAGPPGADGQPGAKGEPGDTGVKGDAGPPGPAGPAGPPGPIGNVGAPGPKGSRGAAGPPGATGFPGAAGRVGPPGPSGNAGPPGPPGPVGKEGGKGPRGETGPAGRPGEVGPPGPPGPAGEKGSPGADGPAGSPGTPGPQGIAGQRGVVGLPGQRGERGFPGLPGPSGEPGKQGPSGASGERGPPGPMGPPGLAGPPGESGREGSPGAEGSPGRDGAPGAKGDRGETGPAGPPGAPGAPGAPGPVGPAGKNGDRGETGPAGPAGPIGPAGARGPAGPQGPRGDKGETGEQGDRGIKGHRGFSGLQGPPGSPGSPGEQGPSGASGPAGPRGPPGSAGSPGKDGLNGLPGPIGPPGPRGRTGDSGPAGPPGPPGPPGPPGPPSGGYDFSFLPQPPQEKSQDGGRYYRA
T3 sequence (P02466 86-1125 limits assumed, chain 2 of 2): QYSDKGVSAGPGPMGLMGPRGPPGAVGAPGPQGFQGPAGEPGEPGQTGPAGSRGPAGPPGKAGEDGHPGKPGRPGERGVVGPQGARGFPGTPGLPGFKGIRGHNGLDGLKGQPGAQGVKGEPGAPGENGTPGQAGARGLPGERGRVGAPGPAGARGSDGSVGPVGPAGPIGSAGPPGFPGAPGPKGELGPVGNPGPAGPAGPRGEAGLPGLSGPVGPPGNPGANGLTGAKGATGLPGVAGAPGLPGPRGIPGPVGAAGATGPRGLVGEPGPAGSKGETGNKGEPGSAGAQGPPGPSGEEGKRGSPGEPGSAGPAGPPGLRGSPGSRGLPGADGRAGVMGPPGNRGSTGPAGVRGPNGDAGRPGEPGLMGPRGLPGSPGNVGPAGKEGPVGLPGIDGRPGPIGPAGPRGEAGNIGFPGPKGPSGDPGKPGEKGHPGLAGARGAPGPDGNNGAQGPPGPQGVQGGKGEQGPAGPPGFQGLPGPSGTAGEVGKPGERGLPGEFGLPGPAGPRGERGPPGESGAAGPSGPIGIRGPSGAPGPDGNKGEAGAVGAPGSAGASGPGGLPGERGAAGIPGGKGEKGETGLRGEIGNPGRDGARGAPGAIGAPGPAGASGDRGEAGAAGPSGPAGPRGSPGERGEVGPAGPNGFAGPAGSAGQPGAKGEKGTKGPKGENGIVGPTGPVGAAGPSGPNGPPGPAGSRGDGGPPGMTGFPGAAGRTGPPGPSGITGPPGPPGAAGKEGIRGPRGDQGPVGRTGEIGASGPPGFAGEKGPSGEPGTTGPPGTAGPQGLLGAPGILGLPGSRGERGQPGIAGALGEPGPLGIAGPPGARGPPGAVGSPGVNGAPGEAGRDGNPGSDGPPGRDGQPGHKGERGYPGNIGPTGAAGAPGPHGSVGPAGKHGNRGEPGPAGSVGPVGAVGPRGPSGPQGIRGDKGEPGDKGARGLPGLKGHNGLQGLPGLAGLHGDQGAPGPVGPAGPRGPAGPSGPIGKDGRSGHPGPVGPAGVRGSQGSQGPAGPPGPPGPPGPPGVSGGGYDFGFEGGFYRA
T2 sequence (P02452 162-1218 limits assumed, chain 1 of 2): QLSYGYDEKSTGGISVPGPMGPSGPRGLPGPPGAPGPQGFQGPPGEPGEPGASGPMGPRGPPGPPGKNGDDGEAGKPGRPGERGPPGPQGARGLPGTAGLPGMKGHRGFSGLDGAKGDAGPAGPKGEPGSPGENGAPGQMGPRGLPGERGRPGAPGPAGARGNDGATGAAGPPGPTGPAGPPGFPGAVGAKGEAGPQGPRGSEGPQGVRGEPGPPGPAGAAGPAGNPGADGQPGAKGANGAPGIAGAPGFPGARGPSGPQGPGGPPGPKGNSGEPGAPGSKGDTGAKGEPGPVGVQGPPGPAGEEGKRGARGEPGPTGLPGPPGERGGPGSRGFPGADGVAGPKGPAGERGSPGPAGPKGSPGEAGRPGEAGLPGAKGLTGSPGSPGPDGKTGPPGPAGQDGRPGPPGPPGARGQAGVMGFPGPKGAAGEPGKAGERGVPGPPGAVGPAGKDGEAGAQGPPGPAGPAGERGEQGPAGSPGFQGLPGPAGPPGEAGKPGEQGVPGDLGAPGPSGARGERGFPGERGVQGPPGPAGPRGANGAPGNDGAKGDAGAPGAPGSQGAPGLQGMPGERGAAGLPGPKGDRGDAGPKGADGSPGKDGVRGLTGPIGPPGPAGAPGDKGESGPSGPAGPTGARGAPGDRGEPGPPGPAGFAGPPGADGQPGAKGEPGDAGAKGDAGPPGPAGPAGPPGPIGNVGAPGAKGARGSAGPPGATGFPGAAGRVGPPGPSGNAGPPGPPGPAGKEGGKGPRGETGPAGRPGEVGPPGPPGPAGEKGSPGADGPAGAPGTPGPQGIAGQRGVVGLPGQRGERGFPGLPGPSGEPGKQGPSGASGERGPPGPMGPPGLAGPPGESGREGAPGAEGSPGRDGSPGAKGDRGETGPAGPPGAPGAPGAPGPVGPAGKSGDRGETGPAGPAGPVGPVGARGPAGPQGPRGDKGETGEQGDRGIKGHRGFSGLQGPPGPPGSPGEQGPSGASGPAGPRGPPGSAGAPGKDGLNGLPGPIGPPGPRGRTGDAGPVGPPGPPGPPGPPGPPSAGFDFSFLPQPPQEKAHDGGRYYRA
T2 sequence (P08123 80-1119 limits assumed, chain 2 of 2): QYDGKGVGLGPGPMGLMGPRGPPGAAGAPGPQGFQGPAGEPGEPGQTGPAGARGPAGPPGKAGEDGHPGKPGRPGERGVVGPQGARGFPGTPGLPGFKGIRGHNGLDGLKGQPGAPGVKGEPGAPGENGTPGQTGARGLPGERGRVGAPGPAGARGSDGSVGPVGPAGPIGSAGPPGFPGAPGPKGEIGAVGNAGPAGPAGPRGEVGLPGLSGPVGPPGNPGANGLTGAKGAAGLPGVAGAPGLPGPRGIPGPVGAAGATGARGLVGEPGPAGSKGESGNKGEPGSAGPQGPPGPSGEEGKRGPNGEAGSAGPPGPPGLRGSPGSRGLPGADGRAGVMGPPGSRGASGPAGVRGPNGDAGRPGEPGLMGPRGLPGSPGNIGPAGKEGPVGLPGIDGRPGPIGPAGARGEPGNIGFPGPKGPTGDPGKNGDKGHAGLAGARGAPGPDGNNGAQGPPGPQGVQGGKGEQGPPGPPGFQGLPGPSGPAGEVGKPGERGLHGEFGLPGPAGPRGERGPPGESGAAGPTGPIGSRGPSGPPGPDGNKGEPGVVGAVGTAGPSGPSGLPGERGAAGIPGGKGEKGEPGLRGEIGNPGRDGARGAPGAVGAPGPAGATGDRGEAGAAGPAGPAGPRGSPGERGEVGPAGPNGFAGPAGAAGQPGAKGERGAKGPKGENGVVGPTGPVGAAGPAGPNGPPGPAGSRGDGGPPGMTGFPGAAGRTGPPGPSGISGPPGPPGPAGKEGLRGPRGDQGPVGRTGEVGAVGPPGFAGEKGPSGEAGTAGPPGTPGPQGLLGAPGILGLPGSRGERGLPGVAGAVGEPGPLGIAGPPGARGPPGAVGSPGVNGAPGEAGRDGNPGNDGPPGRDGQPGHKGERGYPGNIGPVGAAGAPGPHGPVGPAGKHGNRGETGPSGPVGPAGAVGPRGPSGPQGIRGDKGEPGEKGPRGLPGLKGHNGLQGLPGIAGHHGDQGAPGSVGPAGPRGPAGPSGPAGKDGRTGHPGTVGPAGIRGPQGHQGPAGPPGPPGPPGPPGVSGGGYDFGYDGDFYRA
T1 sequence (P02454 152-1207 limits assumed): as the sequence (P02454 152-1207 limits assumed, chain 1 of 2) above
T1 sequence (P02466 86-1125 limits assumed): as the sequence (P02466 86-1125 limits assumed, chain 2 of 2) above

Row | Molecule | % bound [5] | % bound [7] | % bound [8] | other results
1 | O=C([O-])CN(CCN(CC(=O)[O-])CC(=O)O)CCN(CC(=O)[O-])CC(=O)O.[Gd+3] [GdDTPA, gadolinium diethylenetriaminepentaacetate] |  |  |  | percent of compound present at 0 minutes post infusion that remains at 10 minutes [1]: 0.5% and 2.2%; signal of centrifuged collagen gel relative to supernatant (rat type I collagen): no increased concentration of GdDTPA in the gel relative to the supernatant
2 | Q W T C S G D E Y T w H C N Y E (GQWTCSGDEYT[dW]HCNYE; disulfide 5-14 (inferred)) [SEQ ID NO: 173, -G- Linker at the N-terminus] |  |  |  | specific heart uptake [2]: no specific uptake
3 | YHACYQAGCWIY (disulfide 4-9 (inferred)) [SEQ ID NO: 106] |  |  |  | % bound [3]: 9%; % bound [4]: 24%
4 | GQWHCTTSFPHHYCLYG (not fully specified; Gd^T-GQWHCTTSFPHHYCLYG) [Comp ID 869] | 46% |  |  | % bound [6]: 37%
5 | {Gd^T}-GQWHCT[dN]RFPHHYCLYG (disulfide 5-14 (inferred); not fully specified (C-terminus); printed as Gd^T-GQWHCTnRFPHHYCLYG; reading uncertain) [Comp ID 897] | 4% |  |  | 
6 | {Gd^T}-GQWHCT[dS]RFPHHYCLYG (disulfide 5-14 (inferred); not fully specified (C-terminus); printed as Gd^T-GQWHCTsRFPHHYCLYG; reading uncertain) [Comp ID 898] | 5% |  |  | 
7 | {Gd^T}-GQWHCT[dR]RFPHHYCLYG (disulfide 5-14 (inferred); not fully specified (C-terminus); printed as Gd^T-GQWHCTrRFPHHYCLYG; reading uncertain) [Comp ID 900] | 4% |  |  | 
8 | YSACYQAGCWIW (disulfide 4-9 (inferred)) [SEQ ID NO: 109] |  |  |  | % bound [3]: 21%; % bound [4]: 37%
9 | YSACYQAGCYIY (disulfide 4-9 (inferred)) [SEQ ID NO: 110] |  |  |  | % bound [3]: 10%; % bound [4]: 2%
10 | WTCSGDEYTWHCNYE (disulfide 3-12 (inferred)) [SEQ ID NO: 114] |  | 19% | 14% | 
11 | DWTCSGDPYTWHCNYE (disulfide 4-13 (inferred)) [SEQ ID NO: 115] |  | 39% | 23% | 
12 | DWTCSGDEFTWHCNYE (disulfide 4-13 (inferred)) [SEQ ID NO: 119] |  | 55% | 55% | 
13 | DWTCSGDHLTWHCNYG (disulfide 4-13 (inferred)) [SEQ ID NO: 116] |  | 58% | 35% | 
14 | DWTCSGDHLTWKCNYG (disulfide 4-13 (inferred)) [SEQ ID NO: 117] |  | 38% | 24% | 
15 | DWTCSGNHLTWYCNYG (disulfide 4-13 (inferred)) [SEQ ID NO: 118] |  | 68% | 67% | 
16 | GQWTCSGDEYTWHCNYE (disulfide 5-14 (inferred)) [SEQ ID NO: 122] |  |  |  | % bound [9]: 71%; % bound [10]: 71%
17 | GQWTCSGDEYTWHCNY (disulfide 5-14 (inferred)) [SEQ ID NO: 123] |  |  |  | % bound [9]: 59%; % bound [10]: 72%
18 | Cbz-GQWHCT[Dap](Gd^T″)RFPHHYCLYG (disulfide 5-14; not fully specified (C-terminus); printed as cbz-GQWHCT-Dpr(Gd^T)-RFPHHYCLYG) [Comp ID 939] | 4% |  |  | % bound [6]: 5%
19 | {Gd^T″}-GK([Gly-Gd^T″])WHCTTYFPHH[Bip]CLYG (disulfide 5-14; not fully specified (C-terminus); printed as Gd^T-G-K(G.Gd^T)-WHCTTYFPHH-Bip-CLYG) [Comp ID 951] | 45% |  |  | 
